According to US20110319338A1, “PEPTIDES THAT BIND EUKARYOTIC TRANSLATION INITIATION FACTOR 4E” (The Board of Regents of the University of Texas System, priority 2008, published 2011):
Square brackets hold non-standard residues; d marks the D form. Ends that are not written are not given here.

Legend:
[1] = target: T1, eIF4E in SKOV3+GnRH-RI cells (Homo sapiens, UniProt P06730); assay: Pull-down of peptide from lysates of peptide-treated cells, Western blot with eIF4E antibody; format: cell-based; conditions: 10 micromoles per liter, 24 hours
T1 construct: endogenous in cells; host or cells: SKOV3 cells stably transfected with human GnRH-RI (eIF4E itself is not transfected)
Experimental: FIGS. 8A-8D. Effect of [DLys6] GnRH-4EBP1 peptide in SKOV3 cells stably expressing GnRH-RI. (FIG. 8A) Western blot analysis of GnRH-RI in parental SKOV3 cells and SKOV3 cells transfected with GnRH-RI. In (FIG. 8B), SKOV3+GnRH-RI cells were treated with biotinylated peptides at a final concentration of 10 micromoles per liter or incubated without peptide. At 24 hours after treatment, lysates were prepared from cells. Peptide was pulled-down using streptavidin-agarose. Precipitates and supernatants were analyzed by Western blot using eIF4E antibody. (FIG. 8C) parental SKOV3, SKOV3+GnRH-RI and ES-2 cells were treated with the indicated peptides (10 micromoles per liter) or incubated without peptide. At 24 hours after treatment, lysates were prepared from cells. Immunoprecipitation was performed using eIF4E antibody, and Western blot of precipitates was performed using eIF4G antibody. Western blot of whole cell lysates of treated cells was performed using antibodies to eIF4G, eIF4E and actin. (FIG. 8D) TUNEL-staining of parental SKOV3 and SKOV3+GnRH-RI cells at 3 days following treatment with peptide at a final concentration of 30 micromoles per liter.
Immunoprecipitation (IP) and Western blotting. Biotinylated peptides were incubated with 250 micrograms of cell lysate at a final concentration of 3 micromoles per liter for 6 hours at 4° C. […]

ES-2-DualLuc cells = assay: Cell-based translation assay with bicistronic R-Luc/F-Luc reporter; conditions: peptide 6 hours, 0.3 to 10 micromoles per liter, relative to cells without peptide
Experimental: FIGS. 2A-2F. Inhibition of cap-dependent translation and cell growth by TAT-4EBP fusion peptides. (FIG. 2A) Representation of the pIRES-DualLuc bicistronic construct containing Renilla Luciferase (R-Luc) and firefly luciferase (F-Luc) genes. In (FIG. 2B), R-Luc and F-Luc activities were assayed in ES-2-DualLuc cells following treatment for 24 hours with rapamycin and for 3 hours with cycloheximide with the indicated concentrations of these drugs, and expressed relative to the respective luciferase activities in cells incubated without drug. Cell viability was not affected by rapamycin and cycloheximide under these conditions. In (FIG. 2C), R-Luc and F-Luc activities were assayed in ES-2-DualLuc cells following treatment for 6 hours with the indicated concentrations of peptides, and expressed relative to the respective luciferase activities in cells incubated without peptide. Shown are results of triplicate assays performed independently two times, and the statistical significance of differences in relative R-Luc and F-Luc activities in cells treated with peptide at a concentration of 10 micromoles per liter. (FIG. 2D) Viability of OVCAR-3 cells at 3 days after addition of the indicated concentrations of peptides, expressed relative to viability of cells incubated without peptide. Shown are results of triplicate assays performed in two independent experiments, and statistical significances of differences in viability of cells treated with TAT-4EBP1-WT vs. TAT-4EBP1-MT, and of cells treated with TAT-4EBP2-WT vs. TAT-4EBP2-MT at a concentration of 10 micromoles per liter. (FIG. 2E) OVCAR-3 cells at 3 days after peptide addition (10 micromoles per liter) viewed under phase-contrast microscopy. (FIG. 2F) Flow cytometric analysis of staining of terminal deoxynucleotidyl transferase-mediated dUTP nick end labeling (TUNEL) in OVCAR-3 cells at 3 days after peptide addition (10 micromoles per liter). Cells incubated for 3 days in the absence of peptide in medium with and without serum are included as controls.
FIGS. 3A-3H. Uptake, binding and inhibitory effects of [DLys6]GnRH-4EBP fusion peptides. (FIG. 3A) Sequences of [DLys6]GnRH, and wild-type and mutant 4EBP1 peptides fused to the agonist. (FIG. 3B) Western blot of GnRH-RI levels in OVCAR-3, ES-2, MDA-MB-231, BJ, HUVEC and SKOV3 cells. (FIG. 3C) Detection of biotinylated peptides in OVCAR-3 and SKOV3 by Texas Red-conjugated streptavidin at 16 hours after peptide addition (3 micromoles per liter). In (FIGS. 3D and 3E), biotinylated peptides were incubated with OVCAR-3 cell lysate as described in FIG. 1. In (FIG. 3D), peptide was pulled down using streptavidin-agarose. Precipitates (P) and supernatants (S) were analyzed by Western blot using eIF4E antibody. In (FIG. 3E), immunoprecipitation was performed using eIF4E antibody, and Western blot performed using eIF4G antibody. (FIG. 3F) R-Luc and F-Luc activities were assayed in ES-2-DualLuc cells at 6 hours after addition of the indicated concentrations of peptides, and are expressed relative to the respective luciferase activities in cells incubated without peptide. Shown are results of triplicate assays performed independently two times, and the statistical significance of differences in relative R-Luc and F-Luc activities in cells treated with peptide at a concentration of 10 micromoles per liter (FIG. 3G) Cells of GnRH-RI-positive and -negative lines were treated with the indicated concentrations of peptides. Viability at 3 days after peptide addition is expressed relative to viability of cells incubated with no peptide. Shown are results of triplicate assays performed in two independent experiments, and statistical significances of differences in viability of cells treated with wild-type vs. mutant [DLys6]GnRH-4EBP1 peptides at a concentration of 10 micromoles per liter. (FIG. 3H) ES-2 and parental SKOV3 cells at 3 days after peptide addition (30 micromoles per liter) viewed under phase-contrast microscopy. […]

T1 sequence (P06730 whole entry): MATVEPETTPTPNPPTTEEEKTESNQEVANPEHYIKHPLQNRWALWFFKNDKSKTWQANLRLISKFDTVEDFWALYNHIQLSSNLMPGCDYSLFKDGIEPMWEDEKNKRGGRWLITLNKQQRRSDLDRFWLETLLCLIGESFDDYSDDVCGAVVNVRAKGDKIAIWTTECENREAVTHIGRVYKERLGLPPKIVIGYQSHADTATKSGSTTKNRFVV

Substance: [DLys6]GnRH: GnRH agonist with a D-amino acid substitution at position 6; GnRH-RI-targeting moiety (QHWSY[dK]LRPG; not fully specified (residue 1, C-terminus); ends and bridges not checked)
- binding of peptide to eIF4E in treated cells [1]: neither mutant peptide nor [DLys6]GnRH alone bound eIF4E
- cap-dependent translation (R-Luc read-out) (ES-2-DualLuc cells): not inhibited
